Data published in the DeepSol protein solubility set.

Assay: soluble on expression in E. coli; label from the status in PepcDB or PDB records

Sequence	soluble on expression in E. coli
MRKYEQKQLRNHDILTQHYEEVYRQLPEFKSLDDSISILSVQYGKRLLNGDQKAISSLKEELAILRASKQELLRSSGFPADYLEPVYDCPNCKDTGYIGNQKCHCFKKAIIDLLYEQSNLKEILKKENFSNFALDYYSTNFIDPKTGRSSRQVIEDALRICRNFVTSFGTDFQNLFLYGDVGVGKTFLSNCIAKELMDKEYSVLYFSASKFFSSLAKHAFDKQDVDAQNMFELIYNCDCLIIDDLGTEYTNNFIASQFFTCINERLLNSRSTIISTNLSLDTLADLYTERSFSRITSNYIMLKLIGDDIRIKKKLKNREEN	not soluble
MLDIKFLRTNFEEVKAKLQHRGEDLTDFGRFEELDTRRRELLVQTEELKSKRNEVSQQISVLKREKKDAEALILEMREVGEKVKDLDNELRTVEEDLERLMLSIPNIPHESAPVGETEDDNVVARTWGEVKEFAFEPKPHWDLATDLGILDFERAGKVTGSRFVFYKGAGARLERALISFMLDLHTDEHGYEEVLPPYMVNRASMTGTGQLPKFEEDAFRIESEDYFLIPTAEVPVTNMHRDEILNKEQLPIRYAAFSSCFRSEAGSAGRDTRGLIRQHQFNKVELVKFVKPEDSYEELEKLTNDAERVLQLLELPYRVMSMCTGDLGFTAAKKYDIEVWIPSYGTYREISSCSNFEAFQARRANIRFRREPNGKPEHVHTLNGSGLAIGRTVAAILENYQQEDGTIIIPEVLRPYMGGKTVIK	soluble
MQIKTYKIKDICDIKRGRVISKLYIKNNPGEFPVYSSATVNNGEIGRIKDCDLKGEYVTWTTDGAQAGSVFYRNGQFNATNVCGILKVNNDEIYPKFLAYALRLKAPKFVNYACPIPKLMQGTLAEIELDFTSKKIQEKIATILDTFTELSAELSAELSAELSAELRERKKQYVFYSDYLLNPKNWK	soluble
MGHHHHHHSAISVWRAVDYVRMPWKNGGGSTEEITRDAGTGLEGFGWRLSIADIGESGGFSSFAGYQRVITVIQGAGMVLTVDGEEQRGLLPLQPFAFRGDSQVSCRLITGPIRDFNLIYSPERYHARLQWVDGVQRFFSTAQTVLVFSVADEVKVLGEKLGHHDCLQVDGNAGLLDISVTGRCCLIELTQRG	soluble
MGSDKIHHHHHHMVQNTFSDFDVSGFWDDSAYSIEEYVEETPTDALIDSIEQELGYKLPASYIELMKQHNGGTPVNCCFPVTEETSGTEYHVEISGIMGIGRSKTYSLGGSFGSRFMIDEWGYPDTGIYVCTCPSAGHEMILLDYSICGPKGEPQVFYVDQEREYQKTFLAKDFETFIRGLVHADVYDTSAQDLISTLETFRTGNFSEVLQAYIKKDLSVNFDRVLRNLFTELTTEKGYFALHADELSYLSYDIQFYLLSINRKIKSKEDFVKHYLPMVAMSDAGITTGGYANFFEDWFDEKIKSKEITKGLLSGFLFTEIYKQKLFERIKQYDK	not soluble
MTESFAELFEASQANLAKLKPGSIVTGTVVEVRGDVVVINAGLKSEGIVPIEQFRNDAGEIDVGVGDQVKVALDSIENGFGETVLSREKAKRAMVWDELEEALEKNETITGRISGKVKGGFTVDIKDVRAFLPGSLVDVRPVRDPAYLEGKELEFKLIKLDRKRNNVVVSRRAVVESEHSEEREQLMDKLQEGAILKGVVKNLTDYGAFVDLGGIDGLLHITDMAWKRVRHPSEVVNVGDELDVRVLKFDRERNRVSLGLKQLGEDPWDNIARRYPANSRVFGKVSNVTDYGAFVEIEPGVEGLVHVSEMDWTNKNVNPSKVVQVGDEVEVMVLDVDEERRRISLGMKQVAANPWETFAATHKKNDKVSGQIKSITDFGIFIGLDGGIDGLVHLSDISWNTTGEDVVRNYKKGDTLEAVVLAVDPERERISLGVKQLEQDPFGQYMASNPKGSKVEGVVREVDAKGATIDLADGIEGYVAARDIANERVDDATQHLKVGDKIEAKFVGMDRKGRTLQLSIKAKDDAEMRETLEDYQSASASGGMTQLGALLRAQLNNNKSELEHHHHHH	not soluble
MKWAYKEENNFEKRRAEGDKIRRKYPDRIPVIVEKAPKSKLHDLDKKKYLVPSDLTVGQFYFLIRKRIQLRPEDALFFFVNNVIPQTMTTMGQLYQDHHEEDLFLYIAYSDESVYGGEVEKKE	not soluble
MESGREVWPRDPKKAKQAIKQAEFKCEIDDTHETFVSEASRKNYMEAHHLIPLRMQHDFENSLDVVGNIVSICPNCHRLIHYGRDKDKKKVLELLFELEHHHHHH	soluble
MKVAIVHNSEEKSKQVTKQLTTLLEQNQIQIDNRQPELVISVGGDGTLLSAFHRFNHLLNEVSFLGVHTGHLGFYTDWRDYELKELVESLCIHREKSTSYPLLDVRIRFRDGKPDKHFLALNESTIKRGNRTMVGDVFIKDELFERFRGDGLSISTPTGSTAYNKSIGGAVLHPSINAFQLTEIASLNNRVFRTLGSPIVIAHTEWLEIKLQESDDYFVTVDQLDIYQENIASVCYRIADERIHFASYRHMHFWHRVKDAFIGED	not soluble
MADDSVLPSPSEITSLADSSVFDSKVAEMSKENLCLASTSNVDEEMPQVEARVIMVQDAGKQEELLKALKEMKVPCVKMDSMEEFESLDSPEFENIFVVTDFQNSVFNDLYKADCRIVGPPVILNCAQRGEPLPFSCRPLYCTSMLNLVLCFTGFRKKEELVKLVTLVHHMGGVIRKECNSKVTHLVANCTQGEKFRVAVSLGTPIMKPEWIYKAWERRNEQCFCAAVDDFRNEFKVPPFQDCILSFLGFSDEEKHSMEEMTEMQGGSYLPVGDERCTHLIVEENTVKDLPFEPSKKLFVVKQEWFWGSIQMDARAGETMYLYEKANTPELKKSVSLLSLSTPNSNRKRRRLKETLAQLSRETDLSPFPPRKRPSAEHSLSIGSLLDISNTPESSIHYGETPKSCAKSSRSSTPVPPKQSARWQVAKELYQTESNYVNILATIIQLFQVPLEEEGQRGGPILAPEEIKTIFGSIPDIFDVHMKIKDDLEDLIANWDESRSIGDIFLKYAKDLVKTYPPFVNFFEMSKEMIIKCEKQKPRFHAFLKINQAKPECGRQSLVELLIRPVQRLPSVALLLNDLKKHTADENPDKSTLEKAIGSLKEVMTHINEDKRKTEAQKQIFDVVYEVDGCPANLLSSHRSLVQRVETVSLGEHPCDRGEQVTLFLFNDCLEIARKRHKVIGTFRSPHDRTRPPASLKHIHLMPLSQIKKVLDIRETEDCHNAFALLVRPPTEQANVLLSFQMTSEELPKESWLKMLCRHVANTICKADAENLMYVADPESFEVNTKDMDSTLSRASRAIKKTSKKVTRAFSFSKTPKRALRMALSSSHSSEGRSPPSSGKLAVSRLSSTSSLAGIPSPSLVSLPSFFERRSHTLSRSTTHLI	soluble
MLRRKPTRLELKLDDTEEFESVKKELESRKKQRDEVDVVGVATSSEMSGAAGGTADGKTREQMIHERIGYKPHPKPNTLPSLFGNLQF	soluble
MSLYPDDSLTLHTDLYQINMMQVYFDQGIHNKKAVFEVYFRQQPFKNGYAVFAGLERIVNYLEDLRFSDSDIAYLESLGYHGAFLDYLRNFKLELTVRSAQEGDLVFANEPIVQVEGPLAQCQLVETALLNIVNYQTLVATKAARIRSVIEDEPLMEFGTRRAQEMDAAIWGTRAAVIGGANGTSNVRAGKLFDIPVLGTHAHALVQVYGNDYEAFKAYAATHKNCVFLVDTYDTLRIGVPAAIQVARELGDQINFMGVRIDSGDIAYISKKVRQQLDEAGFTEAKIYASNDLDENTILNLKMQKAKIDVWGVGTKLITAYDQPALGAVYKIVAIEDETGQMRNTIKLSNNAEKVSTPGKKQVWRITSREKGKSEGDYITYDGVDISYMTEIKMFHPTYTYIKKTVRNFDAVPLLVDIFKEGILVYNLPSLTDIQDYARKEFDKLWDEYKRVLNPQHYPVDLARDVWQDKMDLIDKMRKEALGEGEEEEGHHHHHH	soluble
MGSDKIHHHHHHMNNKPVVGISGCLTGATVRFDGGHKRMDFVMNSLAPWVAYKPICPEVAIGLPVPRPALRLIQTTCGDIRMRYSHAPHDDVTERMNAFADRFLPTIGELAGFIVCAKSPSCGMERVRLYDEKGNRGRKAGTGLFTAAMMDKYPWLPIEEDGRLHDPVLRENFIARIFALHELNALRAQGLSRHSLLAFHSRYKLQLLAHHQAGYREIGPFVARLHEWDDLDAFFVRYREKLMAILRHPASRKNHTNVLMHIQGYFHRALNSRQRAELREVILGYRAGRLPILAPLTLLKHYLAEHPDDYLRSQNYFEPYPDTLGLRLAIT	not soluble
MTEVLIKVDLNQPVTENEQIHNRWHPDIPMACWVKPGEDFILETYDWTAGAIKNNDDASDVRDVDLSTVHYLSGPVGVHGAEPGDLLVVDLLDIGARADSQWGFNGFFSRQNGGGFLTDHFPMAQKAIWDFKGMMTSSRHIPGVEFAGLIHPGLIGCLPDHKMLAEWNRREQELIDTDPGRVPPLANPPHAKTAHLGKMKGGPERDLAAATGARTVPPREHGGNCDIKDLSRGSKVFFPVYVDGAGLSVGDLHFSQGDGEITFCGAIEMAGWVHMRVELIKGGMAKYGIKNPVFKPSPIVPTYNKYLIFEGISVDESGQQHYLDVNVAYRQACLNAINYMTKFGYSPAQGYALLGSAPVQGHISGIVDIPNACATLWLPTEIFKFDINPNADGPTRFIDGSIDLPIAPDKLEHHHHHH	not soluble
NAADGIFFPALEQNMMGAVLINENDEVMFFNPAAEKLWGYKREEVIGNNIDMLIPRDLRPAHPEYIRHNREGGKARVEGMSRELQLEKKDGSKIWTRFALSKVSAEGKVYYLALVRDAS	soluble
MDRSFCDAGCGVGSLSLPLAQRGAQAVYASDISAKMVEEARERASQIPNLNNIQLEVSDLASLSGRYDTVICLDVLIHYPESDAAAMLSHLCSLAEQRVLVSFAPKSPVLNVLKRIGQFFPGASKTTRAYQHSETAIAAALAANGFQVQRRAFNKAPFYFSLLLEAVRTALEHHHHHH	soluble
MGSDKIHHHHHHCASSLTQGKYVDGTHLVQAKGKKSQIVLEVKVDQGKIVDIKTKSHKETESLYLNAERLLPRIVANNGHEGIDAVSGATYSSNGILKAVNDLPRASSVQPEYVAVGAKEEQGDDFKLKWSIQPKLGLLVGDYYYEEARFRQGHMGSMTIVTNSQDRNDVILAEFNESGRPNYYTRLYQDVPKRMSEYNFSMGKKKGTAWVQSALTMEKLMVEQDKLTFEPNPNHDPKLANKLKEPNRLKYLGIDVVAGASNSIQQSMIPLTAKIHHKIHGEGTRLKFYQLAEKLVNEKGRWTGITAMLRLVVDPASKQIIKAHFDEIFADEKAQIQDASLKKFYRQSKYDSINYSEPARIGFNVMIDALNAHLQAGGSLFDINDLPATGDSGNYAATGFTKRSSSWDIYLNQAEQLYKKMRLDGVIAEHKHPAAK	not soluble
MGSDKIHHHHHHMNLKRRRLLDLKSEIFEKIIKIEGNKIDIKPPKKIPQPILSPSREGFDSRNTYNPAVIKEKDRIVMLYRAESKEDKLTGRIGLAISYDGINFFRHPEPIIEPEYKWESVGVEDPRIVKVGKTYYMTYTGYDGKTARLCLATSKNMLTWKKHGPIFEGFEYKKNNIKGWTKSGAILPKKLEKGNFKGNYLMYFGDSNIWMAVSKDLVNWEYMKEPVLSPREGYFDNVLVEPGPPLFETSYGIALIYNSAGRYGDKLKYKVGVVIFDKEYPDKVVARTETPLMVPEYEWELYGHVNNVVFVEGMVEHENKILLYYGGADRHIGLAYWTTDL	not soluble
MNLLQRALVFTGGHISRYQAVIAVNSVGKNARFYSTTDDNMAAPEESVVAKDEMKRFMVECMTKVGATESHATQLALVLLEGDIRGHYSHGLNRLDMYVRDIEQNVCKGDGEPIILKEKAGTAWVDGNNLLGPVVGNFCMDLAIEKAKNAGIGWVVAKGSNHYGIAGWYALRAMKKGMLGMSMTNTSPISFPTRSAVPALGTNPISLAAPGTGDDSFVLDMASTTVAIGKVELAARKENPVPLSWGVGEGGKETTDPTKVLYGGGLLPLGGVEVSGGYKGYGLSSMIEIFCGILAGAHWGPHVRKWMSTKSEADLGQCFVAIDPEAFAPGFADRLQDFMQTMRALPTSSPSFKVEVAGDMERRHEALVEQLGGIPYHKNQITFVNDLAAKLGVKTVDLVQ	not soluble
